Measurements published in the DeepSol protein solubility set.

Assay: soluble on expression in E. coli; label from the status in PepcDB or PDB records

Row | Sequence | soluble on expression in E. coli
1 | GPGSMMELPMEMNVDGVPMVLSKVSYSPMLDFGGTFSYRRYCFVGELQPEGYVNWFFAPLEGYKDKRLRVHESAVKEGALNHLVFMRLGELSFRQYKLKHIPSPTEQPHSPVTPQGDSTKQLMGHAHPHFNYIFEAMRQDQASSPSPRSSSIGSDCTYHSSKESCESLQMSSSLVDLPGKRLSNASLRSGVRPPLEARRGAVCDDEGFLPPVRSLKKSSERSQEL | not soluble
2 | MTRPNDEGDVSSLAYKYETIADSLRQDIKSGKYTPGELMPDQNKLAETFDTTRITIHKAIQLLIIEGMVYSKRGAGTFVRKDFGLTERRQETLVDKPLGTTQTNAGKKVTSKVLELQARLPTKREAEQLLIDEMDPVYVIRRTRYVDGKVWAYEHTIMPTSIVTLTKQVLEGSVYGYLEQHSGKKIAGSHRIISAARVTADDVAAMGATLNDPVLVINQISYMDDGQPFEVSESHFPYETSTVVADVQIH | not soluble
3 | ELVMTQTPSSVSEPVGGTVTIKCQASQSISSWLSWYQQKPGQPPKLLIYDASNLASGVPSRFMGSGSGTEYTLTISGVQREDAATYYCLGGYPAASYRTAFGGGTELEIIRTVAAPSVFIFPPSDEQLKSGTASVVCLLNNFYPREAKVQWKVDNALQSGNSQESVTEQDSKDSTYSLSSTLTLSKADYEKHKVYACEVTHQGLSSPVTKSFNRGEC | soluble
4 | METFGVFHKEDDEQMDLPPGFRFHPTDEELITHYLHKKVLDLGFSAKAIGEVDLNKAEPWELPYKAKIGEKEWYFFCVRDRKYPTGLRTNRATQAGYWKATGKDKEIFRGKSLVGMKKTLVFYRGRAPKGQKTNWVMHEYRLDGKLSAHNLPKTAKNEWVICRVFHKTAGGKKIPISTLIRIGSYGTGSSLPPLTDSSPYNDKTKTEPVYVPCFSNQAETRGTILNCFSNPSLSSIQPDFLQMIPLYQPQSLNISESSNPVLTQEQSVLQAMMENNRRQNFKTLSISQETGVSNTDNSSVFEFGRKRFDHQEVPSPSSGPVDLEPFWNY | soluble
5 | MGSDKIHHHHHHMFIINELNKIVNEEVISFHMPGHKKGQVYKKLGYKDILKNLYKMDTTEILGTDNLHFPEGIIKNSQKKASRVFKSDYTCYLVNGSSCGIQSAIMSVCSPKSKIITNRDCHQSVINGCILGDIDIEYVPCEISEETNVLKGISISNVIDIIDKNLDAKAVLLTYPTYYGMTYDLEYICNYAHSKKMVVIVDEAHGAHLGLSERLPKTALEQGADIVVQSTHKTLPAFTQSSMIHIQGDRVDIDKILNMLRITESSSPSYLLLSSLELAVDIYENKGKELMEELLNNIITFKNKVDSNINIYDTNDKTKIFISSKNMGLTGYELENILRNKYNIQVELSNYYGVLLICTIGNTAEDFSSLETALNNVVKEDFKFEKLENKKYPVVIPKKILTPREAFYKTKKSVKIYDSIGKVCGECIVPYPPGISVISPGEVISKEIIDYLMFCHSKGMIVSGLKDVDLNFIQVIDLEDI | not soluble
6 | MSLSQCQTLLSQINRRIESYENIPVFSFAQKLPLFDSNSTKLKLNSQTNEMMMELLSLVEQNKGKKILIVGHSDNTGSSSMNMTLSEQRALALRDWLIKRSDITVDNFITKGMGASEPVATNHTEAGREQNRRVEVLILPTQDRTRMTEPKPLEGHHHHHH | soluble
7 | MGSDKIHHHHHHMGEELPVSQPVDQRPLEHQDHCQAAEPAAMDPPAGEDFYEKDFITYLSDENEQEISRAFIVANPGMVKFHFVDKVYEQLALKDKQVDTAIYSEVLPDPPLSQAIKIAKQMKKFAPDTIIAIGGGSALDVSKIARYIYEYSLDQEDGWLDIYDNVSELIKELQQKFVDIRKRIVKFKHETRTSLVMTRSLKAPS | not soluble
